Patent US20070105796

B1: N-terminal HA-tagged inactive MAPKAPK3 (T201A/T313A) (protein)
chain: MDGETAEEQGGPVPPPVAPGGPGLGGAPGGRREPKKYAVTDDYQLSKQVLGLGVNGKVLECFHRRTGQKCALKLLYDSPKARQEVDHHWQASGGPHIVCILDVYENMHHGKRCLLIIMECMEGGELFSRIQERGDQAFTEREAAEIMRDIGTAIQFLHSHNIAHRDVKPENLLYTSKEKDAVLKLTDFGFAKETTQNALQAPCYTPYYVAPEVLGPEKYDKSCDMWSLGVIMYILLCGFPPFYSNTGQAISPGMKRRIRLGQYGFPNPEWSEVSEDAKQLIRLLLKTDPTERLTITQFMNHPWINQSMVVPQAPLHTARVLQEDKDHWDEVKEEMTSALATMRVDYDQVKIKDLKTSNNRLLNKRRKKQAGSSSASQGCNNQ
B2: GST fusion MAPKAPK3 (N-terminal GST fusion human MAPKAPK3) (protein)
chain: MDGETAEEQGGPVPPPVAPGGPGLGGAPGGRREPKKYAVTDDYQLSKQVLGLGVNGKVLECFHRRTGQKCALKLLYDSPKARQEVDHHWQASGGPHIVCILDVYENMHHGKRCLLIIMECMEGGELFSRIQERGDQAFTEREAAEIMRDIGTAIQFLHSHNIAHRDVKPENLLYTSKEKDAVLKLTDFGFAKETTQNALQTPCYTPYYVAPEVLGPEKYDKSCDMWSLGVIMYILLCGFPPFYSNTGQAISPGMKRRIRLGQYGFPNPEWSEVSEDAKQLIRLLLKTDPTERLTITQFMNHPWINQSMVVPQTPLHTARVLQEDKDHWDEVKEEMTSALATMRVDYDQVKIKDLKTSNNRLLNKRRKKQAGSSSASQGCNNQ
B3: N-terminal HA-tagged active MAPKAPK3 (T201E/T313E) (protein)
chain: MDGETAEEQGGPVPPPVAPGGPGLGGAPGGRREPKKYAVTDDYQLSKQVLGLGVNGKVLECFHRRTGQKCALKLLYDSPKARQEVDHHWQASGGPHIVCILDVYENMHHGKRCLLIIMECMEGGELFSRIQERGDQAFTEREAAEIMRDIGTAIQFLHSHNIAHRDVKPENLLYTSKEKDAVLKLTDFGFAKETTQNALQEPCYTPYYVAPEVLGPEKYDKSCDMWSLGVIMYILLCGFPPFYSNTGQAISPGMKRRIRLGQYGFPNPEWSEVSEDAKQLIRLLLKTDPTERLTITQFMNHPWINQSMVVPQEPLHTARVLQEDKDHWDEVKEEMTSALATMRVDYDQVKIKDLKTSNNRLLNKRRKKQAGSSSASQGCNNQ
B4: GST fusion inactive MAPKAPK3 (T201A/T313A) (protein)
chain: MDGETAEEQGGPVPPPVAPGGPGLGGAPGGRREPKKYAVTDDYQLSKQVLGLGVNGKVLECFHRRTGQKCALKLLYDSPKARQEVDHHWQASGGPHIVCILDVYENMHHGKRCLLIIMECMEGGELFSRIQERGDQAFTEREAAEIMRDIGTAIQFLHSHNIAHRDVKPENLLYTSKEKDAVLKLTDFGFAKETTQNALQAPCYTPYYVAPEVLGPEKYDKSCDMWSLGVIMYILLCGFPPFYSNTGQAISPGMKRRIRLGQYGFPNPEWSEVSEDAKQLIRLLLKTDPTERLTITQFMNHPWINQSMVVPQAPLHTARVLQEDKDHWDEVKEEMTSALATMRVDYDQVKIKDLKTSNNRLLNKRRKKQAGSSSASQGCNNQ
B5: N-terminal HA-tagged MAPKAPK3 (protein)
chain: MDGETAEEQGGPVPPPVAPGGPGLGGAPGGRREPKKYAVTDDYQLSKQVLGLGVNGKVLECFHRRTGQKCALKLLYDSPKARQEVDHHWQASGGPHIVCILDVYENMHHGKRCLLIIMECMEGGELFSRIQERGDQAFTEREAAEIMRDIGTAIQFLHSHNIAHRDVKPENLLYTSKEKDAVLKLTDFGFAKETTQNALQTPCYTPYYVAPEVLGPEKYDKSCDMWSLGVIMYILLCGFPPFYSNTGQAISPGMKRRIRLGQYGFPNPEWSEVSEDAKQLIRLLLKTDPTERLTITQFMNHPWINQSMVVPQTPLHTARVLQEDKDHWDEVKEEMTSALATMRVDYDQVKIKDLKTSNNRLLNKRRKKQAGSSSASQGCNNQ
B6: GST fusion active MAPKAPK3 (T201E/T313E) (protein)
chain: MDGETAEEQGGPVPPPVAPGGPGLGGAPGGRREPKKYAVTDDYQLSKQVLGLGVNGKVLECFHRRTGQKCALKLLYDSPKARQEVDHHWQASGGPHIVCILDVYENMHHGKRCLLIIMECMEGGELFSRIQERGDQAFTEREAAEIMRDIGTAIQFLHSHNIAHRDVKPENLLYTSKEKDAVLKLTDFGFAKETTQNALQEPCYTPYYVAPEVLGPEKYDKSCDMWSLGVIMYILLCGFPPFYSNTGQAISPGMKRRIRLGQYGFPNPEWSEVSEDAKQLIRLLLKTDPTERLTITQFMNHPWINQSMVVPQEPLHTARVLQEDKDHWDEVKEEMTSALATMRVDYDQVKIKDLKTSNNRLLNKRRKKQAGSSSASQGCNNQ

target: HSP27 (small heat shock protein 27), P04792
Sequence (P04792 whole entry): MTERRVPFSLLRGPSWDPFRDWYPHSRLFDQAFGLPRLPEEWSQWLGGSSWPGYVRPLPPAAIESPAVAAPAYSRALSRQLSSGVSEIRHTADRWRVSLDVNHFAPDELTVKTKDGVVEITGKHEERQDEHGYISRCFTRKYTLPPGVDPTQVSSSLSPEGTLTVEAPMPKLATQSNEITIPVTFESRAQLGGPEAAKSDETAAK

Which “kinase activity (immune-complex kinase assay, phosphorylation of HSP27)” value does the source give for B1 here?
Its value is “the kinase activity was observed only in an active MAPKAPK3”.

B2 was tested. Which “kinase activity (phosphorylation of HSP27 with [gamma-32P]ATP, autoradiography)” value did it give?
Its value is “the kinase activity was observed only in an active MAPKAPK3”.

B3 was tested. Which “kinase activity (immune-complex kinase assay, phosphorylation of HSP27)” value did it give?
Its value is “the kinase activity was observed only in an active MAPKAPK3”.

B4 was tested. Which “kinase activity (phosphorylation of HSP27 with [gamma-32P]ATP, autoradiography)” value did it give?
Its value is “the kinase activity was observed only in an active MAPKAPK3”.

For B5, which “kinase activity (immune-complex kinase assay, phosphorylation of HSP27)” value is on record?
Its value is “the kinase activity was observed only in an active MAPKAPK3”.

How did the “kinase activity (phosphorylation of HSP27 with [gamma-32P]ATP, autoradiography)” value turn out when B6 was run?
The value was “the kinase activity was observed only in an active MAPKAPK3”.
